Values quoted from earlier work as cited in article PMC7427315.

Biological target: MAG ECD (Mus musculus) (UniProt P20917)

- Kd: 380 µM
Substance: MAG ECD (from UniProt P20917)
